# Source: paper PMC10786891, “Massively parallel profiling of RNA-targeting CRISPR-Cas13d”
# T1: EsCas13d, nuclease-dead (Eubacterium siraeum, UniProt B0MS50, R295A;H300A;R849A;H854A)
# T1 sequence: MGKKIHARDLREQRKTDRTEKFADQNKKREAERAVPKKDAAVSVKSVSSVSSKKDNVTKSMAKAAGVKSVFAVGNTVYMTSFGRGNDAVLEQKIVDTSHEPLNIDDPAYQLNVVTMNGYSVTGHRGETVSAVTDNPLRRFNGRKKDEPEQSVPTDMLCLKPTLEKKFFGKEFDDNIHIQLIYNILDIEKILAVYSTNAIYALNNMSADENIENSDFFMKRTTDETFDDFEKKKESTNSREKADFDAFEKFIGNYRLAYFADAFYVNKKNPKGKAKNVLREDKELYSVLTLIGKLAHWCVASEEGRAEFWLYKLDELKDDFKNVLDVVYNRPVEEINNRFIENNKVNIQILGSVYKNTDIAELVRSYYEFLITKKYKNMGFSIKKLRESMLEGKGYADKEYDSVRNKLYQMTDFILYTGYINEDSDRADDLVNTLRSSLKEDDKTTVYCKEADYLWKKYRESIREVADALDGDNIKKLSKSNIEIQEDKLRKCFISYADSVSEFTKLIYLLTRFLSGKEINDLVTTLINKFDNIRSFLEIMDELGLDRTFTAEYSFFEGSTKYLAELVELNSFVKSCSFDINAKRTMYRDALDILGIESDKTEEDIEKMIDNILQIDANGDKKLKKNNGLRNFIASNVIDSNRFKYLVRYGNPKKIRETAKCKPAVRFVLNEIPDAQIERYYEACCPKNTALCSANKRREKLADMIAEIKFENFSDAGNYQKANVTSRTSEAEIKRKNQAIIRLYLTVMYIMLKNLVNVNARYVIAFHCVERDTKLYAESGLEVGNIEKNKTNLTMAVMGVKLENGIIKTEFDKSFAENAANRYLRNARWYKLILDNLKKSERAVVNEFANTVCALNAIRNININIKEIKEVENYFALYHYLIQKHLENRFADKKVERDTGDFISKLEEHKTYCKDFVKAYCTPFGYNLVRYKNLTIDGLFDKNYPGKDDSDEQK
# B1: target 1 A1G,A9G (mixed)
# RNA 1: CACCCGUGCAAAAAUGCAGGGGUCUAAAACUGAGCGGAUAACCUCUCUAUGG
# RNA 2: GGGAAUGGAUCCACAUCUACGAAUUCGUACCAUAGAGAGGUUGUCCGCUCGCCGAGAUCGGAAGAGCACACGU
# B2: target 1 G15C,C21U (mixed)
# RNA 1: CACCCGUGCAAAAAUGCAGGGGUCUAAAACUGAGCGGAUAACCUCUCUAUGG
# RNA 2: GGGAAUGGAUCCACAUCUACGAAUUCGUACUAUAGACAGGUUAUCCGCUCACCGAGAUCGGAAGAGCACACGU
# B3: target 1 C2G,A16G (mixed)
# RNA 1: CACCCGUGCAAAAAUGCAGGGGUCUAAAACUGAGCGGAUAACCUCUCUAUGG
# RNA 2: GGGAAUGGAUCCACAUCUACGAAUUCGUACCAUAGGGAGGUUAUCCGCUGACCGAGAUCGGAAGAGCACACGU
# B4: target 1 insU 3' of 21,insA 3' of 21 (mixed)
# RNA 1: CACCCGUGCAAAAAUGCAGGGGUCUAAAACUGAGCGGAUAACCUCUCUAUGG
# RNA 2: GGGAAUGGAUCCACAUCUACGAAUUCGUACCUAAUAGAGAGGUUAUCCGCUCACCGAGAUCGGAAGAGCACACGU
# B5: target 1 U11G,G17U (mixed)
# RNA 1: CACCCGUGCAAAAAUGCAGGGGUCUAAAACUGAGCGGAUAACCUCUCUAUGG
# RNA 2: GGGAAUGGAUCCACAUCUACGAAUUCGUACCAUAUAGAGGGUAUCCGCUCACCGAGAUCGGAAGAGCACACGU
# B6: target 1 insG 3' of 8,insA 3' of 3 (mixed)
# RNA 1: CACCCGUGCAAAAAUGCAGGGGUCUAAAACUGAGCGGAUAACCUCUCUAUGG
# RNA 2: GGGAAUGGAUCCACAUCUACGAAUUCGUACCAUAGAGAGGUUAUGCCGCUACACCGAGAUCGGAAGAGCACACGU
# B7: target 1 C6U,U19G (mixed)
# RNA 1: CACCCGUGCAAAAAUGCAGGGGUCUAAAACUGAGCGGAUAACCUCUCUAUGG
# RNA 2: GGGAAUGGAUCCACAUCUACGAAUUCGUACCAGAGAGAGGUUAUCUGCUCACCGAGAUCGGAAGAGCACACGU
# B8: target 1 insU 3' of 9,insC 3' of 3 (mixed)
# RNA 1: CACCCGUGCAAAAAUGCAGGGGUCUAAAACUGAGCGGAUAACCUCUCUAUGG
# RNA 2: GGGAAUGGAUCCACAUCUACGAAUUCGUACCAUAGAGAGGUUAUUCCGCUCCACCGAGAUCGGAAGAGCACACGU
# B9: target 1 insG 3' of 9,insG 3' of 9 (mixed)
# RNA 1: CACCCGUGCAAAAAUGCAGGGGUCUAAAACUGAGCGGAUAACCUCUCUAUGG
# RNA 2: GGGAAUGGAUCCACAUCUACGAAUUCGUACCAUAGAGAGGUUAGGUCCGCUCACCGAGAUCGGAAGAGCACACGU
# B10: target 1 insA 3' of 11,insU 3' of 5 (mixed)
# RNA 1: CACCCGUGCAAAAAUGCAGGGGUCUAAAACUGAGCGGAUAACCUCUCUAUGG
# RNA 2: GGGAAUGGAUCCACAUCUACGAAUUCGUACCAUAGAGAGGUAUAUCCGUCUCACCGAGAUCGGAAGAGCACACGU
# B11: target 1 insG 3' of 20,insA 3' of 19 (mixed)
# RNA 1: CACCCGUGCAAAAAUGCAGGGGUCUAAAACUGAGCGGAUAACCUCUCUAUGG
# RNA 2: GGGAAUGGAUCCACAUCUACGAAUUCGUACCAGUAAGAGAGGUUAUCCGCUCACCGAGAUCGGAAGAGCACACGU
# B12: target 1 C6U,C7G (mixed)
# RNA 1: CACCCGUGCAAAAAUGCAGGGGUCUAAAACUGAGCGGAUAACCUCUCUAUGG
# RNA 2: GGGAAUGGAUCCACAUCUACGAAUUCGUACCAUAGAGAGGUUAUGUGCUCACCGAGAUCGGAAGAGCACACGU
# B13: target 1 G5A,U8C (mixed)
# RNA 1: CACCCGUGCAAAAAUGCAGGGGUCUAAAACUGAGCGGAUAACCUCUCUAUGG
# RNA 2: GGGAAUGGAUCCACAUCUACGAAUUCGUACCAUAGAGAGGUUACCCACUCACCGAGAUCGGAAGAGCACACGU
# B14: target 1 G5A,A9U (mixed)
# RNA 1: CACCCGUGCAAAAAUGCAGGGGUCUAAAACUGAGCGGAUAACCUCUCUAUGG
# RNA 2: GGGAAUGGAUCCACAUCUACGAAUUCGUACCAUAGAGAGGUUUUCCACUCACCGAGAUCGGAAGAGCACACGU
# B15: target 1 insA 3' of 19 (mixed)
# RNA 1: CACCCGUGCAAAAAUGCAGGGGUCUAAAACUGAGCGGAUAACCUCUCUAUGG
# RNA 2: GGGAAUGGAUCCACAUCUACGAAUUCGUACCAUAAGAGAGGUUAUCCGCUCACCGAGAUCGGAAGAGCACACGU
# B16: target 1 insU 3' of 20,insG 3' of 18 (mixed)
# RNA 1: CACCCGUGCAAAAAUGCAGGGGUCUAAAACUGAGCGGAUAACCUCUCUAUGG
# RNA 2: GGGAAUGGAUCCACAUCUACGAAUUCGUACCAUUAGGAGAGGUUAUCCGCUCACCGAGAUCGGAAGAGCACACGU
# B17: target 1 insC 3' of 18,insA 3' of 3 (mixed)
# RNA 1: CACCCGUGCAAAAAUGCAGGGGUCUAAAACUGAGCGGAUAACCUCUCUAUGG
# RNA 2: GGGAAUGGAUCCACAUCUACGAAUUCGUACCAUACGAGAGGUUAUCCGCUACACCGAGAUCGGAAGAGCACACGU
# B18: target 1 del14,del16 (mixed)
# RNA 1: CACCCGUGCAAAAAUGCAGGGGUCUAAAACUGAGCGGAUAACCUCUCUAUGG
# RNA 2: GGGAAUGGAUCCACAUCUACGAAUUCGUACCAUAGGGGUUAUCCGCUCACCGAGAUCGGAAGAGCACACGU
# B19: target 1 insG 3' of 10 (mixed)
# RNA 1: CACCCGUGCAAAAAUGCAGGGGUCUAAAACUGAGCGGAUAACCUCUCUAUGG
# RNA 2: GGGAAUGGAUCCACAUCUACGAAUUCGUACCAUAGAGAGGUUGAUCCGCUCACCGAGAUCGGAAGAGCACACGU
# B20: target 1 insU 3' of 14,insA 3' of 11 (mixed)
# RNA 1: CACCCGUGCAAAAAUGCAGGGGUCUAAAACUGAGCGGAUAACCUCUCUAUGG
# RNA 2: GGGAAUGGAUCCACAUCUACGAAUUCGUACCAUAGAGAUGGUAUAUCCGCUCACCGAGAUCGGAAGAGCACACGU
# B21: target 1 insG 3' of 20,insA 3' of 8 (mixed)
# RNA 1: CACCCGUGCAAAAAUGCAGGGGUCUAAAACUGAGCGGAUAACCUCUCUAUGG
# RNA 2: GGGAAUGGAUCCACAUCUACGAAUUCGUACCAGUAGAGAGGUUAUACCGCUCACCGAGAUCGGAAGAGCACACGU
# B22: target 1 C4A,A18C (mixed)
# RNA 1: CACCCGUGCAAAAAUGCAGGGGUCUAAAACUGAGCGGAUAACCUCUCUAUGG
# RNA 2: GGGAAUGGAUCCACAUCUACGAAUUCGUACCAUCGAGAGGUUAUCCGAUCACCGAGAUCGGAAGAGCACACGU
# B23: target 1 complement block 2-14 (mixed)
# RNA 1: CACCCGUGCAAAAAUGCAGGGGUCUAAAACUGAGCGGAUAACCUCUCUAUGG
# RNA 2: GGGAAUGGAUCCACAUCUACGAAUUCGUACCAUAGAGUCCAAUAGGCGAGACCGAGAUCGGAAGAGCACACGU
# B24: target 1 insA 3' of 22,insG 3' of 16 (mixed)
# RNA 1: CACCCGUGCAAAAAUGCAGGGGUCUAAAACUGAGCGGAUAACCUCUCUAUGG
# RNA 2: GGGAAUGGAUCCACAUCUACGAAUUCGUACACAUAGAGGAGGUUAUCCGCUCACCGAGAUCGGAAGAGCACACGU
# Target: T1, EsCas13d, nuclease-dead
# Assay: crRNA (strand 1, pre-loaded); Mg2+; 40 mM Tris-HCl pH 7.5, 150 mM NaCl, 6 mM MgCl2, 1 mM DTT, 0.1% Tween-20, 0.2 mg/ml BSA; 25 C; 10 min per concentration, then washed
# Settings: tags: His6-TwinStrep-SUMO cleaved; N-terminal SNAP kept (SNAP-Surface 488); label: 3' end held by stalled T7 RNA polymerase
row,Binder,Kd
1,B1,12.6 ± 0.5 nM
2,B2,9.4 ± 0.7 nM
3,B3,33.1 ± 1.6 nM
4,B4,22.4 ± 3.3 nM
5,B5,47 ± 5 nM
6,B6,8.3 ± 0.5 nM
7,B7,48 ± 11 nM
8,B8,16.3 ± 1.1 nM
9,B9,16.2 ± 0.9 nM
10,B10,18.7 ± 1.5 nM
11,B11,45 ± 7 nM
12,B12,7.9 ± 0.8 nM
13,B13,15.3 ± 0.7 nM
14,B14,29.7 ± 1.8 nM
15,B15,15.9 ± 0.7 nM
16,B16,99 ± 21 nM
17,B17,23.9 ± 1.2 nM
18,B18,84 ± 17 nM
19,B19,23 ± 1.7 nM
20,B20,54 ± 10 nM
21,B21,60 ± 7 nM
22,B22,63 ± 22 nM
23,B23,71 ± 17 nM
24,B24,26.3 ± 2.6 nM
